From PMC3201875

Assays:
SBP-tagged LeishIF4E-4 = test: pull-down
SBP-tagged LeishIF4E-1 = test: pull-down

Substance	percent of the total protein in the elution fraction (SBP-tagged LeishIF4E-4) [%]	percent of the total protein in the elution fraction (SBP-tagged LeishIF4E-1) [%]
LeishIF4A-1 (natural protein)	3.4	3
LeishIF4G-3 (natural protein)	9	
Leishmania 4E-Interacting Protein (Leish4E-IP) (natural protein)		14
